“And” between values parts separate entries of the source, which are not always exact repeats. Equal entries are not always repeated.
Molecular target: mouse angiotensin converting enzyme 2 (ACE2) (mouse) (UniProt Q8R0I0)
Test: cell-based or functional assay

UniProt Q8R0I0, sequence (Q8R0I0 18-805): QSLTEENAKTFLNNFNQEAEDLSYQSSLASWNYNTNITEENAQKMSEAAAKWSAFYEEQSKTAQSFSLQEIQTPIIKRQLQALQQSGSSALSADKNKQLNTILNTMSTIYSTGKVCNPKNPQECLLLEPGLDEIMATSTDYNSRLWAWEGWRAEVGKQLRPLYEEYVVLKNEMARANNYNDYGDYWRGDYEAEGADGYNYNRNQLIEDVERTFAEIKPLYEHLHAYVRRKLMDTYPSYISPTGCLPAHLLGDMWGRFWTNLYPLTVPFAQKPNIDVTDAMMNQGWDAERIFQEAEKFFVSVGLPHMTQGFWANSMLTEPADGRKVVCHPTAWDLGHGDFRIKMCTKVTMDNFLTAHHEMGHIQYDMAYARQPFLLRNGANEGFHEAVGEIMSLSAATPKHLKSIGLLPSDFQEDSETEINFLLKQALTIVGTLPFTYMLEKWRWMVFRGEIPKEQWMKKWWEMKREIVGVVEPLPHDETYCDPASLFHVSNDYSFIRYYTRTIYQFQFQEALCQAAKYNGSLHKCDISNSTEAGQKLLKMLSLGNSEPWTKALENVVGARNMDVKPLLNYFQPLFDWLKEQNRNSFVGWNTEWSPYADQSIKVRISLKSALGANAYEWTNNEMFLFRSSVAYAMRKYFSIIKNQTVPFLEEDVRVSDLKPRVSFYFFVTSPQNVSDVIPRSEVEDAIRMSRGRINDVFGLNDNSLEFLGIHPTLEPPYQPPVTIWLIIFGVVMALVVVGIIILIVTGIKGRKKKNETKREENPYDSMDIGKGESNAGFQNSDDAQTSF

SARS-CoV2 Spike protein, WT (614D), with C-terminal HA tag (from UniProt P0DTC2 14-1273)
cell fusion assay, FACS red/green double positive events (x over the baseline without Spike): 17 and 18

From patent US20220048954A1
